Experimental data: the nanobody polyreactivity screen of Harvey et al. (2022)

Test: yeast display, Sf9 membrane polyspecificity reagent, FACS + sequencing; frameworks hold sequencing errors
Method in brief: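 A synthetic nanobody library was expressed on Saccharomyces cerevisiae BJ5465 by galactose induction for 36–48 hours. The library was stained for 1 hour at 4 °C with 10% biotinylated, detergent-solubilized Sf9 membrane reagent and enriched with streptavidin microbeads before FACS. Low and high (top ~1%) gates were set on anti-HA fluorescence for expression and streptavidin fluorescence for reagent binding, and each polyreactivity label reflects the gate of origin.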
With “QVQLVESGGGLVQAGGSLRLSCAASGSIFRVYAMGWYRHAPGKERELVATITWNGGSTYYADSVKGRFTISRDNAKNTVYLQMNSLKPEDTAVYYCAAGRDTWPSTYYYWGQGSQVTVSS” the “polyreactivity (PSR sort gate)” value was “low polyreactivity”. For “QVQLVESGGGLVQAGGSLRLSCAASGSIFRVYAMGWYRPAPGKERELVASISRRGGSTYYADSVKGRFTISRDNEKNTVYLHMNILKPEDTAVYYCAAEFVIGVHCYDYWGQVTQVTVSS”, the “polyreactivity (PSR sort gate)” value was “high polyreactivity”. In the case of “QVQLVESGGGLVQAGGSLRLSCAASGSIFRVYAMGWYRQAPGKERELVAAITRGGSTYADSVKGRFTISRDNAKNTVYLQMNSLKPEDTAVYYCAARVSYWGQGTQVTVSS”, the “polyreactivity (PSR sort gate)” value is reported as “high polyreactivity”. With “QVQLVESGGGLVQAGGSLRLSCAASGSIFRVYAMGWYRQAPGKERELVAGITGRGGSTYYADSVKGRFTISRDNAKNTVYLQMNSLKPEDTAVYYCNRRYRYGRDYWGQGTQVTVSS” the “polyreactivity (PSR sort gate)” value was “high polyreactivity”. In the case of “QVQLVESGGGLVQAGGSLRLSCAASGSIFRVYAMGWYRQAPGKERELVAGITWTGTRTYYADSVKGRFTISRDNAKNTVYLQMNSLKPEDTAVYYCAARYTIRYKRYDYWGQGTQVTVSS”, the “polyreactivity (PSR sort gate)” value is reported as “high polyreactivity”. With “QVQLVESGGGLVQAGGSLRLSCAASGSIFRVYAMGWYRQAPGKERELVARISRGGRTNYADSVKGRFTISRDNAKNTVYLQMNSLKPEDTSVYYCAADVVSLESYSYQSLGYDSWGQGTQVNVSS” the “polyreactivity (PSR sort gate)” value was “high polyreactivity”. For “QVQLVESGGGLVQAGGSLRLSCAASGSIFRVYAMGWYRQAPGKERELVARISWSDDGTYYADSVKGRFTISRDNAKNTVYLQMNSLKPEDTAVYYCNADSYYYPYDYWGQGTQVTVSS”, the “polyreactivity (PSR sort gate)” value was “low polyreactivity”. For “QVQLVESGGGLVQAGGSLRLSCAASGSIFRVYAMGWYRQAPGKERELVASISRRGGSTYYADSVKGRFTISRDYAKNTVYLQMNSLKPEDTAVYYCAAEFVIGGHGYDYWGQGTQVSVSS”, the “polyreactivity (PSR sort gate)” value was “high polyreactivity”. In the case of “QVQLVESGGGLVQAGGSLRLSCAASGSIFRVYAMGWYRQSPGKERELVASIRSRGGSTYYADSVKGRFTISRDNAKNTVYLQMNSLKPEDTAVYYCGKSYWGGDEYWGQGTQVTVSS”, the “polyreactivity (PSR sort gate)” value is reported as “low polyreactivity”. For “QVQLVESGGGLVQAGGSLRLSCAASGSIFRVYGMGWYRQAPGKERELVAAITWSGGSTYYADSVKGRFTISRDNAKNTVYLQMNSLKPEDTAVYYCAARHKYAFWTAFGNYWGQGTQVTVSS”, the “polyreactivity (PSR sort gate)” value was “high polyreactivity”. In the case of “QVQLVESGGGLVQAGGSLRLSCAASGSIFRVYGMGWYRQAPGKERELVAAITWSGGSTYYADSVKGRFTISRDNAKNTVYLQMNSLKPEDTAVYYCNADKFRRYGYWGQGTQVTVSS”, the “polyreactivity (PSR sort gate)” value is reported as “high polyreactivity”. For “QVQLVESGGGLVQAGGSLRLSCAASGSIFRWNAMGWYRQAPRKEREMVAAIDYSGGSTYYADSVKGRFTISRDNAKKTVYLQMNSLKPEDTAVYFCADTAYYGGYLRYDYWGQGTQVTVSS”, the “polyreactivity (PSR sort gate)” value was “low polyreactivity”. With “QVQLVESGGGLVQAGGSLRLSCAASGSIFRWYAMGWYRQAPGKERELVAAISTSGGNTYYADSVKGRFTISRDIAKITVYLQMKSLKPEDTAVYYCNALWYRSLSYRYDYWGQGTQVTVSS” the “polyreactivity (PSR sort gate)” value was “high polyreactivity”. In the case of “QVQLVESGGGLVQAGGSLRLSCAASGSIFRWYAMGWYRQAPGKERELVAGITRGGRTNYADSVKGRFTISRDNAKNTVYLQMNSLKPEDTAVYYCAKVSRSKQKFDYWGQGTQVTVSS”, the “polyreactivity (PSR sort gate)” value is reported as “high polyreactivity”. For “QVQLVESGGGLVQAGGSLRLSCAASGSIFRYNAKGWYRQAPGKERELVAARRSRGGSTNYADSVKGRFTISRDNAKNTVYLQMNSLKPEDNAVYFCAADGSYTKTTIYIFGGLDFWGQGTQVTVSS”, the “polyreactivity (PSR sort gate)” value was “low polyreactivity”. With “QVQLVESGGGLVQAGGSLRLSCAASGSIFRYNAMGWDRQAPGKERELVAGITWGGSTYYADSVKGRFTISRDNAKNTVYLQMNSLKPEDTAVYYCAAGRYGDYGYWGQGTQVTVSS” the “polyreactivity (PSR sort gate)” value was “high polyreactivity”. In the case of “QVQLVESGGGLVQAGGSLRLSCAASGSIFRYNAMGWYRQAPGKERELVAAIRSGGSTYYADSVKGRFTISRDNAKNTVYLQMNSLKPEDTAVYYCNARRYVGYDYWGQGTQVTVSS”, the “polyreactivity (PSR sort gate)” value is reported as “high polyreactivity”. In the case of “QVQLVESGGGLVQAGGSLRLSCAASGSIFRYYAMGWYRQAPGKEREFVAAISASGGSTYYADSVKGRFTISRDNAKNTVYLQMNSLKPEDTAVYYCAARYSYRRPGGYPFGSWGQGTQVTVSS”, the “polyreactivity (PSR sort gate)” value is reported as “high polyreactivity”. With “QVQLVESGGGLVQAGGSLRLSCAASGSIFRYYAMGWYRQAPGKEREFVAAITRSGGSTTYADSVKGRFTISRDNAKNTVYLQMNSLKPEDTAVYYCNAKSSRFQVFNYGYWGQGTQVTVSS” the “polyreactivity (PSR sort gate)” value was “high polyreactivity”. In the case of “QVQLVESGGGLVQAGGSLRLSCAASGSIFRYYAMGWYRQAPGKEREFVARISVSGGSTYYADSVKGRFTISRDNAKNAVYLQMNSLKPEDTAVYYCNTADFRSRYPAMGYWGQGTQVNVSS”, the “polyreactivity (PSR sort gate)” value is reported as “low polyreactivity”. In the case of “QVQLVESGGGLVQAGGSLRLSCAASGSIFRYYAMGWYRQAPGKERELVAAIRRSGASTYYADSVKGRFTISRDNAKNTVYLHMNSLKPEDTAVYYCAASSFNNGHRYDYWGQGTQVTVSS”, the “polyreactivity (PSR sort gate)” value is reported as “high polyreactivity”. In the case of “QVQLVESGGGLVQAGGSLRLSCAASGSIFRYYAMGWYRQAPGKERELVAAISGSGASTYYADSVKGRFTISRDNAKNTVYLQMNSLKPEDTEVYFCAAYRGPRHHYPSVYNWGYDYWGQGTQVTVSS”, the “polyreactivity (PSR sort gate)” value is reported as “high polyreactivity”. For “QVQLVESGGGLVQAGGSLRLSCAASGSIFRYYAMGWYRQAPGKERELVAAISNRGSSTNYADSVKGRFTISRDNAKNTVYLQMNSLKPEDTAVYYCAARVRYPGLSGNMYYWGQGTQVTVSS”, the “polyreactivity (PSR sort gate)” value was “high polyreactivity”. In the case of “QVQLVESGGGLVQAGGSLRLSCAASGSIFRYYAMGWYRQAPGKERELVAAITSGGRTNYADSVKGRFTISRDNAKNTVYLQMNSLKPEDSAVYYCNKGYNAVWRYRGDYWGQGTQVTVSS”, the “polyreactivity (PSR sort gate)” value is reported as “high polyreactivity”. With “QVQLVESGGGLVQAGGSLRLSCAASGSIFRYYAMGWYRQAPGKERELVATISSSGGTTYYADSVKGRFTISRDNAKNTVYLQMNSLKPEDTAVYYCAALWTWHVSYPVHEYDYWGQGTQVTVSS” the “polyreactivity (PSR sort gate)” value was “low polyreactivity”. In the case of “QVQLVESGGGLVQAGGSLRLSCAASGSIFRYYAMGWYRQAPGKERELVATISSSGGTTYYADSVKGRFTISRDNAKNTVYLQMNSLKPEETAVYYCAALWTWHVSYPVHEYDFWGQGTQVTVSS”, the “polyreactivity (PSR sort gate)” value is reported as “low polyreactivity”. For “QVQLVESGGGLVQAGGSLRLSCAASGSIFRYYAMVWYRQAPGKERELVAAISSGGNTKYADSVKGRFTISRDNAKNTVYLQRNSLKPADTAVYYCNADGKAGGDYDYWGQGTQVTVSS”, the “polyreactivity (PSR sort gate)” value was “low polyreactivity”. For “QVQLVESGGGLVQAGGSLRLSCAASGSIFRYYTMGWYRQAPGKERELVAAISSRGGSTYYADSVKGRFTISRDNAKNTVYLQMNSLKPEDTAVYYCNVLVKRAYQYTYGVDYWGQGTQVTVSS”, the “polyreactivity (PSR sort gate)” value was “high polyreactivity”. In the case of “QVQLVESGGGLVQAGGSLRLSCAASGSIFRYYVMGWYRQAPGKERELVASISYSVGRTYYADSVKGRFTISRDNAKNTVYLQMNSLKPEDTAVYYCAADRYWPYYSAYYTSYRMDYWGQGTQVTVSS”, the “polyreactivity (PSR sort gate)” value is reported as “high polyreactivity”. For “QVQLVESGGGLVQAGGSLRLSCAASGSIFSAYAMGWYRQAPGKERELVAAISYGGGSTYYADSVKGRFTISRDNAKNTVYLQMNSLKAEDTAVYYCAAASSGEYGYWGQGTQVTVSS”, the “polyreactivity (PSR sort gate)” value was “low polyreactivity”. In the case of “QVQLVESGGGLVQAGGSLRLSCAASGSIFSAYSMGWYRQAPGKERELVAAISKSGSSTYYADSVKGRFTISRDNANNTVYFQMNSLKPEDTAVYYCAAKRAGPYGITKGMDYWGQGTQVSVSS”, the “polyreactivity (PSR sort gate)” value is reported as “high polyreactivity”. For “QVQLVESGGGLVQAGGSLRLSCAASGSIFSDNAMGWYRQAPGKERELVAAITYSGGRTSYADSVKGRFTISRDNAKNTVYLQMNSLKPEDTAVYYCAVGSHSRSSNSYYYWGQGTQVTVSS”, the “polyreactivity (PSR sort gate)” value was “low polyreactivity”. For “QVQLVESGGGLVQAGGSLRLSCAASGSIFSDYAMGWYRQAPGEERELVAAINSGVSTSYADSVKGRFTISRDNAKNTVYLQMNSLKPEDTAVYYCAKDGSSPSPWYGGFGYWGQGTQVTVSS”, the “polyreactivity (PSR sort gate)” value was “low polyreactivity”. For “QVQLVESGGGLVQAGGSLRLSCAASGSIFSDYAMGWYRQAPGKERELVAASTQSGGSTYADSLKGRFSISRDNAKNTVYLQMNSLKPEDTAVYYCADRHDKRRQYYVGQSAFDYWGQGTQVTVSS”, the “polyreactivity (PSR sort gate)” value was “low polyreactivity”. In the case of “QVQLVESGGGLVQAGGSLRLSCAASGSIFSDYTMGWYRQAPGKERELVAAISGIGGSTYYADSVKGRFTISRDNAKNTVYLQMNSLKPEDTAVYYCAADDYYYPYVSHDYWGQGTQVTVSS”, the “polyreactivity (PSR sort gate)” value is reported as “low polyreactivity”. With “QVQLVESGGGLVQAGGSLRLSCAASGSIFSDYVMGWSRQAPGKERELVATISRGGGSTFYADSVKGRFTISRDTAKNTVYLQMNSLKPEDTAVYYCAAPPGPSGAKYDYWGQGTQVTVSS” the “polyreactivity (PSR sort gate)” value was “low polyreactivity”. With “QVQLVESGGGLVQAGGSLRLSCAASGSIFSENTMGWYRQAPGKKRELVADITSGGSTNYADSVKGRFTISRDNAKNTVYLQMNSLKPEDTAVYYCAADYNGEYDYWGQGTQVTVSS” the “polyreactivity (PSR sort gate)” value was “low polyreactivity”. For “QVQLVESGGGLVQAGGSLRLSCAASGSIFSFNAMGWYRQAPGKEREFVAAIFGVTRTYYADSVKGRFTISRDNAKNTVYLQMNSLKPEDTAVYYCAARPPYRRYSEPRFGYWGQGTQVTVSS”, the “polyreactivity (PSR sort gate)” value was “high polyreactivity”. In the case of “QVQLVESGGGLVQAGGSLRLSCAASGSIFSFNAMGWYRQAPGKERELVAVITQRGGSTYYADSVKGRFTISRDNAKNTVYLQMNSLKPEDTAVYYCAARTPRGYYYWGQGTQVTVSS”, the “polyreactivity (PSR sort gate)” value is reported as “high polyreactivity”. In the case of “QVQLVESGGGLVQAGGSLRLSCAASGSIFSFYSMGWYRQAPGKERELVSGITWSGGSTYYADSVKGRFTISRDNAKNTVYLQMNSLKPEDTAVYYCAKTKWYYWYTSFPSVQSYDYWGQGTHVTVSS”, the “polyreactivity (PSR sort gate)” value is reported as “high polyreactivity”. In the case of “QVQLVESGGGLVQAGGSLRLSCAASGSIFSFYTMGWYRQAPGKERELVASSTTYADSVKGRFTISRDNAKNTVYLQMNSLKPEDTAVYYCAAEYYSSITGWYYYWGQGTQVTVSS”, the “polyreactivity (PSR sort gate)” value is reported as “low polyreactivity”. For “QVQLVESGGGLVQAGGSLRLSCAASGSIFSGNAMGGYRQAPGKERELVAAISRTGTRTFYADSEKGRFTISRDNAKNTVYLQMNSLKPEDTAVYYCAADNPDGDGYDYWGQGTQVTVSS”, the “polyreactivity (PSR sort gate)” value was “high polyreactivity”. In the case of “QVQLVESGGGLVQAGGSLRLSCAASGSIFSGNAMGWYRPAPGKGRELVAGSSRRGGRTYYADSVKGRFTISRDNAKNTVYIPMNSLKPEDPAVYYCNKDVFGDTREYDYWGQGTQVTVSS”, the “polyreactivity (PSR sort gate)” value is reported as “high polyreactivity”.
